Measured values from patent publication US20200017549A1, “NOVEL a4B7 PEPTIDE ANTAGONISTS” (Protagonist Therapeutics, Inc., priority 2013, published 2020).
Bridge positions count the residues as written; N and C are the ends. Square brackets hold non-standard residues; d marks the D form. Ends that are not written are not given here. NMeR = CN[C@@H](CCCNC(=N)N)C(=O)O

Target: T1, α4β7 (RPMI 8866 cells) (Homo sapiens, UniProt P13612+P26010)
T1 construct: host or cells: RPMI 8866 cells
T1 sequence (P13612 34-1032): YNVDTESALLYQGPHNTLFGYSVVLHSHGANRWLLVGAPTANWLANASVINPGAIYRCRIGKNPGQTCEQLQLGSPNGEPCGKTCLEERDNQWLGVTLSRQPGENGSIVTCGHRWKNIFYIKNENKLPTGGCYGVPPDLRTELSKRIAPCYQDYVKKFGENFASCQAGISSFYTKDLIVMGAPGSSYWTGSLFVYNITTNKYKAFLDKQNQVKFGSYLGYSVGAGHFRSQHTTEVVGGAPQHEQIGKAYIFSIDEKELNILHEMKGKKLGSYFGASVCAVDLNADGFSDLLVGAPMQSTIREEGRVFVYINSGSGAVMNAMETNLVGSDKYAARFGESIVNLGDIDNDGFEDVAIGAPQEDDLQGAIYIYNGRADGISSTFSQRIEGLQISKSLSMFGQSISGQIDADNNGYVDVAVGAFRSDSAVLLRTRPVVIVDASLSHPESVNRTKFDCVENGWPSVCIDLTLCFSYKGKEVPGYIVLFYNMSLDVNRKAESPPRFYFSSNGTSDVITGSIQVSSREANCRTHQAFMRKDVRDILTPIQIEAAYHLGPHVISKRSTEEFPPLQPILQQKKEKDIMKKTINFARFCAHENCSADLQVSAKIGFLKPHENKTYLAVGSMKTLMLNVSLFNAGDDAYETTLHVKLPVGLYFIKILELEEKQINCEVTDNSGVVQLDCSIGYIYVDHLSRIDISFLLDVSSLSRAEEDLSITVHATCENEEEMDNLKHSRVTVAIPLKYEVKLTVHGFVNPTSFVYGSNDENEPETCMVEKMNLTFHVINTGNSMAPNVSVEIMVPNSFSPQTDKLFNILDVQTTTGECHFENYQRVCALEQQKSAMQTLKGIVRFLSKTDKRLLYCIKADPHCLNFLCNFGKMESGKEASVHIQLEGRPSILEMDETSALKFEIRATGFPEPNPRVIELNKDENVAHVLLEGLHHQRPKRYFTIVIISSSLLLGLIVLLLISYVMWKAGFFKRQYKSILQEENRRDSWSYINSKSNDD
T1 sequence (P26010 20-798): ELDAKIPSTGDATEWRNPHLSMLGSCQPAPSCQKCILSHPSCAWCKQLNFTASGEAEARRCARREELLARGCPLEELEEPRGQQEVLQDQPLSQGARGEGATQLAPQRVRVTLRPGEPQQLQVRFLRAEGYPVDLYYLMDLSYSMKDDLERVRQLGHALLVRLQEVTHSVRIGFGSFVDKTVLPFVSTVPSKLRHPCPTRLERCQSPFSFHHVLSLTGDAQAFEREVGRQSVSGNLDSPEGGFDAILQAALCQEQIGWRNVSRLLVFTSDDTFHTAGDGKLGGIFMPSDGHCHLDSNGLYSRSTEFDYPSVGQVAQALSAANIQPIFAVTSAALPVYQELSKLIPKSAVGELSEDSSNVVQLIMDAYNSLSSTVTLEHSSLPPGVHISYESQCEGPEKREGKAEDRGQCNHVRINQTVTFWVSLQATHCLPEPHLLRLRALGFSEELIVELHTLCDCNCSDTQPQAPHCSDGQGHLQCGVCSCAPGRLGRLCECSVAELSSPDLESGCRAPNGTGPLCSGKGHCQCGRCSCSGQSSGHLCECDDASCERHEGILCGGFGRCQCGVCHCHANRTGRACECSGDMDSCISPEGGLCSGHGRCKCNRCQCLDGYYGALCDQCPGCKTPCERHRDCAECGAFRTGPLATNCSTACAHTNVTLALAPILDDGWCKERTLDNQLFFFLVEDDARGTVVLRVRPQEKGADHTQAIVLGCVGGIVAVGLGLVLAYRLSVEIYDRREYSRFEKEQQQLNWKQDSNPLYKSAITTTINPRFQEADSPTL
Assay: α4β7-MAdCAM Cell Adhesion Assay
Type: cell-based
Conditions: N-Me-Arg substituted, as compared to SEQ ID NO:39
Procedure: α4β7-MAdCAM Cell Adhesion Assay
RPMI 8866 cells (Sigma #95041316) are cultured in RPMI 1640 HEPES medium (Invitrogen #22400-089) supplemented with 10% serum (Fetal Bovine Serum, Invitrogen # 16140-071), 1 mM sodium pyruvate (Invitrogen #11360-070), 2 mM L-glutamine (Invitrogen # 25030-081) and Penicillin-Streptomycin (Invitrogen # 15140-122) at 100 units of penicillin and 100 μg of streptomycin per ml. The cells are washed two times in DMEM medium (ATCC #30-2002) supplemented with 0.1% BSA, 10 mM HEPES pH 7 and 1 mM MnCl2. The cells are re-suspended in supplemented DMEM medium at a density of 4×10^6 cells/ml.
A Nunc MaxiSorp plate was coated with rh MAdCAM-1/Fc Chimera (R&D #6065-MC) at 200 ng per well in 50 ul per well in 1×PBS and incubated at 4° C. overnight. The solution was then removed by shaking, blocked with 250 ul per well PBS containing 1% BSA, and incubated at 37° C. for 1 hr. The solution was removed by shaking. peptides are diluted by serial dilution in a final volume of 50 ul per well (2× concentration). To each well, 50 ul of cells (200,000 cells) are added and the plate is incubated at 37° C., 5% CO2 for 30-45 min to allow cell adhesion. […] The plate is shaken for 5 min and the absorbance at 570 nm is measured. To calculate the dose response, the absorbance value of control wells not containing cells is subtracted from each test well.

SEQ ID NO: 48: integrin antagonist peptide substituted with N-Me-Arg (C[NMeR]SDTLCK; disulfide 1-7)
potency for α4β7 in cell adhesion assay: increased potency
